Values quoted from earlier work in publication PMC4192513, “A Novel Protein-Protein Interaction in the RES (REtention and Splicing) Complex” (The Journal of Biological Chemistry, 2014).
Entries after “also recorded” stand apart in the source; their conditions may differ.

Test system: RES complex (Snu17p, Bud13p, Pml1p)
Conditions: ref [4]
Excerpt: Previous biochemical analyses have shown that Snu17p binds Bud13p directly ([4], [6]). Based on a mutational analysis of the invariant Bud13p Trp^232 residue ([6]), the interaction of Bud13p with the Snu17p RRM has been proposed to resemble a typical UHM-ULM interaction. […] The structural findings are consistent with our initial mutagenesis analysis, which was guided by the recognition features described for the UHM family.

B1: W232A: single W232A mutant of Bud13p, from ref [4] (protein, UniProt P46947 1-266, looked up, variant W232A)
Pre-mRNA-splicing factor CWC26: MALHQYLSETYGPTKPKNKTKKKKKESKSDANSDKTSLIVKERLSTLQQEQEKSGVASFSKFDKQKSKNIWKNLETNELSHAITHPSASSITGNESKNDLKEIRAQEPLVTVADKSKTRKTIYRDAQGHKIQEDSKIDDSSFSRSKYEDEKAAEREQYLKNLNMGDVQKLGINVDAHDKKKNQTASSLTIEDPAITFTHDKERTVKTSLLGRKLYDKPAPENRFAIMPGSRADGVHRSNGFEEKWFAKQNEINEKKVQSYTLQEDY
For B1, the “interaction with Snu17p / complex formation of W232A mutant” value is listed as “did not abolish its interaction with Snu17p; also recorded: did not prevent complex formation”.
